# Square brackets hold non-standard residues; d marks the D form. Primed or numbered codes have the meaning given here. Ends that are not written are not given here. PEG4′ = PEG spacer of 4 units in the linker; PEG8′ = PEG spacer of 8 units in the linker
# Tests used:
# [1] = biological target: T1, type A insulin receptor (IR-A) (Homo sapiens, UniProt P06213); experiment: Receptor kinase activity (phosphorylation) assay, type A insulin receptor; type: cell-based
# T1 construct: expressed in transfected cells; host or cells: HEK293
# [2] = biological target: T2, type B insulin receptor (IR-B) (Homo sapiens, UniProt P06213); experiment: Receptor kinase activity (phosphorylation) assay, type B insulin receptor; type: cell-based; settings: Table 17
# T2 construct: expressed in transfected cells; host or cells: HEK293
# [3] = blood glucose lowering in mice
substance,measurement,setting,value
"C8-PEG20K B^1(H5,Y16,L17)25-PEG8-K-PEG4-A^1(N18,N21) (GPEHLCGAELVDALYLVCGDRGFY[PEG8′]K(PEG 20 kDa)[PEG4′]GIVDECCFRSCDLRRLENYCN; ends and bridges not checked) [#38]",% Insulin Activity IR-A,[1]; Table 12,14.8%
same,Phosphorylation (EC50) % IR-A,[1]; Table 17,14.8%
same,agonist character at the insulin receptor (type A),[1]; result in words,full agonist
same,Phosphorylation (EC50) % IR-B,[2],2.0%
same,duration of action,[3],24 h

# — patent US9593156B2 (priority 2012, dated 2017)
